Test results taken from patent US20090239794A1, “HCV F PROTEIN AND USES THEREOF” (priority 2004, published 2009).

Legend:
[1] = target: Fmut8Δ11 protein (recombinant ARFP, truncated HCV-1a F protein lacking the first 11 N-terminal amino acids) (HCV-1a) (UniProt P0C045); experiment: ELISA, serum 1/50, day 14
[2] = target: Fmut8Δ11 protein (recombinant ARFP, truncated HCV-1a F protein lacking the first 11 N-terminal amino acids) (HCV-1a) (UniProt P0C045); experiment: ELISA, serum 1/50, day 29
[3] = target: Fmut8Δ11 protein (recombinant ARFP, truncated HCV-1a F protein lacking the first 11 N-terminal amino acids) (HCV-1a) (UniProt P0C045); experiment: ELISA, serum 1/50, day 52
[4] = target: Fmut8Δ11 protein (recombinant ARFP, truncated HCV-1a F protein lacking the first 11 N-terminal amino acids) (HCV-1a) (UniProt P0C045); experiment: ELISA, serum 1/100, day 14
[5] = target: Fmut8Δ11 protein (recombinant ARFP, truncated HCV-1a F protein lacking the first 11 N-terminal amino acids) (HCV-1a) (UniProt P0C045); experiment: ELISA, serum 1/100, day 29
[6] = target: Fmut8Δ11 protein (recombinant ARFP, truncated HCV-1a F protein lacking the first 11 N-terminal amino acids) (HCV-1a) (UniProt P0C045); experiment: ELISA, serum 1/100, day 52
[7] = target: Fmut8Δ11 protein (recombinant ARFP, truncated HCV-1a F protein lacking the first 11 N-terminal amino acids) (HCV-1a) (UniProt P0C045); experiment: ELISA, serum 1/200, day 14
[8] = target: Fmut8Δ11 protein (recombinant ARFP, truncated HCV-1a F protein lacking the first 11 N-terminal amino acids) (HCV-1a) (UniProt P0C045); experiment: ELISA, serum 1/200, day 29
[9] = target: Fmut8Δ11 protein (recombinant ARFP, truncated HCV-1a F protein lacking the first 11 N-terminal amino acids) (HCV-1a) (UniProt P0C045); experiment: ELISA, serum 1/200, day 52
[10] = target: Fmut8Δ11 protein (recombinant ARFP, truncated HCV-1a F protein lacking the first 11 N-terminal amino acids) (HCV-1a) (UniProt P0C045); experiment: ELISA, serum 1/400, day 14
[11] = target: Fmut8Δ11 protein (recombinant ARFP, truncated HCV-1a F protein lacking the first 11 N-terminal amino acids) (HCV-1a) (UniProt P0C045); experiment: ELISA, serum 1/400, day 29
[12] = target: Fmut8Δ11 protein (recombinant ARFP, truncated HCV-1a F protein lacking the first 11 N-terminal amino acids) (HCV-1a) (UniProt P0C045); experiment: ELISA, serum 1/400, day 52
[13] = target: Fmut8Δ11 protein (recombinant ARFP, truncated HCV-1a F protein lacking the first 11 N-terminal amino acids) (HCV-1a) (UniProt P0C045); experiment: ELISA, serum 1/800, day 14
[14] = target: Fmut8Δ11 protein (recombinant ARFP, truncated HCV-1a F protein lacking the first 11 N-terminal amino acids) (HCV-1a) (UniProt P0C045); experiment: ELISA, serum 1/800, day 29
[15] = target: Fmut8Δ11 protein (recombinant ARFP, truncated HCV-1a F protein lacking the first 11 N-terminal amino acids) (HCV-1a) (UniProt P0C045); experiment: ELISA, serum 1/800, day 52
[16] = target: Fmut8Δ11 protein (recombinant ARFP, truncated HCV-1a F protein lacking the first 11 N-terminal amino acids) (HCV-1a) (UniProt P0C045); experiment: ELISA, serum 1/1600, day 14
[17] = target: Fmut8Δ11 protein (recombinant ARFP, truncated HCV-1a F protein lacking the first 11 N-terminal amino acids) (HCV-1a) (UniProt P0C045); experiment: ELISA, serum 1/1600, day 29
[18] = target: Fmut8Δ11 protein (recombinant ARFP, truncated HCV-1a F protein lacking the first 11 N-terminal amino acids) (HCV-1a) (UniProt P0C045); experiment: ELISA, serum 1/1600, day 52

Row | Substance | OD410 [1] | OD410 [2] | OD410 [3] | OD410 [4] | OD410 [5] | OD410 [6] | OD410 [7] | OD410 [8] | OD410 [9] | OD410 [10] | OD410 [11] | OD410 [12] | OD410 [13] | OD410 [14] | OD410 [15] | OD410 [16] | OD410 [17] | OD410 [18]
1 | serum of mouse 11, protocol 2, mock immunization (PBS) (antibody) | 0.108 | 0.307 | 0.35 | 0.154 | 0.19 | 0.173 | 0.135 | 0.153 | 0.133 | 0.116 | 0.128 | 0.149 | 0.114 | 0.127 | 0.118 | 0.113 | 0.123 | 0.117
2 | serum of mouse 12, protocol 2, mock immunization (PBS) (antibody) | 0.442 | 0.246 | 0.516 | 0.302 | 0.148 | 0.208 | 0.215 | 0.127 | 0.17 | 0.17 | 0.114 | 0.146 | 0.16 | 0.114 | 0.125 | 0.15 | 0.117 | 0.12
3 | serum of mouse 13, protocol 2, mock immunization (PBS) (antibody) | 0.288 | 0.338 | 0.474 | 0.177 | 0.161 | 0.238 | 0.151 | 0.126 | 0.172 | 0.143 | 0.121 | 0.133 | 0.169 | 0.126 | 0.123 | 0.142 | 0.13 | 0.113
4 | serum of mouse 14, protocol 2, mock immunization (PBS) (antibody) | 0.212 | 0.246 | 0.288 | 0.171 | 0.156 | 0.224 | 0.178 | 0.143 | 0.156 | 0.151 | 0.126 | 0.163 | 0.15 | 0.123 | 0.159 | 0.143 | 0.124 | 0.145
5 | serum of mouse 15, protocol 2, mock immunization (PBS) (antibody) | 0.229 | 0.253 | 0.376 | 0.162 | 0.16 | 0.215 | 0.146 | 0.123 | 0.151 | 0.144 | 0.113 | 0.177 | 0.118 | 0.13 | 0.134 | 0.116 | 0.122 | 0.136
6 | serum of mouse 16, protocol 2, mock immunization (PBS) (antibody) | 0.249 | 0.327 | 0.231 | 0.174 | 0.325 | 0.194 | 0.13 | 0.196 | 0.149 | 0.121 | 0.151 | 0.134 | 0.13 | 0.129 | 0.107 | 0.123 | 0.116 | 0.123
7 | serum of mouse 17, protocol 2, mock immunization (PBS) (antibody) | 0.67 | 0.754 | 0.5 | 0.487 | 0.269 | 0.286 | 0.321 | 0.191 | 0.185 | 0.248 | 0.138 | 0.142 | 0.184 | 0.119 | 0.125 | 0.159 | 0.112 | 0.125
